{
  "source": "patent EP1327681A1",
  "key": {"[1]": {"molecular_target": "human TPO receptor (MPL) expressed on Ba/F3 cells (human) (UniProt P40238)", "assay": "cell-based or functional assay"}, "[2]": {"molecular_target": "human TPO receptor (MPL) expressed on Ba/F3 cells (human) (UniProt P40238)", "assay": "cell-based or functional assay", "remark": "listed apart in the source"}},
  "data": [
    {"molecule": "human TPO (R&D Systems) (from UniProt P40225 22-353) (ligand)", "values": [
      {"measurement": "ED50, proliferation of BaF/mpl cells (WST-8)", "setting": "[1]", "value": 0.027, "unit": "nM"}
    ]},
    {"molecule": "antibody 12B5 (IgG) (antibody, from another filing) scFv: QVQLVQSGGGLVRPGGSLSLSCAVSGITLRTYGMHWVRQAPGKGLEWVAGISFDGRSEYYADSVQGRFTISRDSSKNTLYLQMNSLRAEDTAVYYCARGAHYGFDIWGQGTMVTVSSGGGGTGGGGSGGGGSDIQMTQSPSTLSASIGDRVTITCRASEGIYHWLAWYQQKPGKAPKLLIYKASSLASGAPSRFSGSGSGTDFTLTISSLQPDDFATYYCQQYSNYPLTFGGGTKLEIK", "values": [
      {"measurement": "ED50, TPO-like agonist activity, proliferation of BaF/mpl cells (WST-8)", "setting": "[2]", "value": 29, "unit": "nM"}
    ]}
  ]
}
